biological target: po2f1_human POU2F1 (UniProt P14859)
Sequence of UniProt P14859 (P14859 whole entry): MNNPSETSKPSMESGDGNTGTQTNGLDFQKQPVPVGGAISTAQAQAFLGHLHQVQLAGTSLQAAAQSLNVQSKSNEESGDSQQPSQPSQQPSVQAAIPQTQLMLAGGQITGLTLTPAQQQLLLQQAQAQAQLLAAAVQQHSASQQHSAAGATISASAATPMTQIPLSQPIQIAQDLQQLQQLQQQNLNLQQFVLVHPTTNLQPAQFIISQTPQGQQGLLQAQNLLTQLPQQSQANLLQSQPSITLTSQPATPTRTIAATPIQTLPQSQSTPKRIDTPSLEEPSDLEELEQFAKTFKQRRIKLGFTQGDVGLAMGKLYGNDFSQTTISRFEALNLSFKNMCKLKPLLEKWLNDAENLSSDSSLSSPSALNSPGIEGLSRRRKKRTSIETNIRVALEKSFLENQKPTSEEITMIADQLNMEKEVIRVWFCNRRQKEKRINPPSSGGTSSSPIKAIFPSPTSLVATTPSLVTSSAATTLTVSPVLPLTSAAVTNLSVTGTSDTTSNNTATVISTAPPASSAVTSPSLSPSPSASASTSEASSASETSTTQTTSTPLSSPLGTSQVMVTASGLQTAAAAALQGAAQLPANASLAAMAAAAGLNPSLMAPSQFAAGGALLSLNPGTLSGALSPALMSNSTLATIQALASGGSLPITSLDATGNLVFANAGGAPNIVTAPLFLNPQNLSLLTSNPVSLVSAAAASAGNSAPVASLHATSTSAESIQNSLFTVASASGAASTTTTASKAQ

Row | effect of a mutation on the interaction | Substance
1 | decreasing interaction | Host cell factor 1 (Homo sapiens), P51610 R344A;K345A
2 | decreasing interaction | Host cell factor 1 (Homo sapiens), P51610 E289A;W290A;K291A
3 | decreasing interaction | Host cell factor 1 (Homo sapiens), P51610 P134S

biological target: creb3_human CREB3 (UniProt O43889)
Sequence of UniProt O43889 (O43889 whole entry): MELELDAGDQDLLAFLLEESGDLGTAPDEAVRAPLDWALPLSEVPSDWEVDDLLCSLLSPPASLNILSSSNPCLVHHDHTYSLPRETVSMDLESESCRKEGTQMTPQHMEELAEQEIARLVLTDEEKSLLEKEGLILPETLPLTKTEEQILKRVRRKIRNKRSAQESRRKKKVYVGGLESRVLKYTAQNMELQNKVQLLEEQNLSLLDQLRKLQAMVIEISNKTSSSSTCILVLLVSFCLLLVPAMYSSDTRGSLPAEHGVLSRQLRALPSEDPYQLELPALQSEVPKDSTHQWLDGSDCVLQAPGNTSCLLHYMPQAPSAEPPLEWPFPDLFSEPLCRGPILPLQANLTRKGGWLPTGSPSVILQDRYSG

Row | Substance | effect of a mutation on the interaction
4 | Host cell factor 1 (Homo sapiens), P51610 P30S | decreasing interaction
5 | Host cell factor 1 (Homo sapiens), P51610 E289A;W290A;K291A | decreasing interaction
6 | Host cell factor 1 (Homo sapiens), P51610 P134S | decreasing interaction
7 | Host cell factor 1 (Homo sapiens), P51610 C82D | decreasing interaction
8 | Host cell factor 1 (Homo sapiens), P51610 P197S | decreasing interaction

The next lines start with the values.

Row | effect of a mutation on the interaction | Substance
9 | decreasing interaction | Host cell factor 1 (Homo sapiens), P51610 P319S
10 | decreasing interaction | Host cell factor 1 (Homo sapiens), P51610 P79S
11 | decreasing interaction | Host cell factor 1 (Homo sapiens), P51610 S338A
12 | decreasing interaction | Host cell factor 1 (Homo sapiens), P51610 R228D

Reference: IntAct's records for PubMed 10629049
